“Also recorded” adds a separate entry of the source.
Assays:
[1] = tested on: GST-Nictide
[2] = tested on: T1, LRRKtide peptide (RLGRDKYKTLRQIRQ)
T1 sequence: RLGRDKYKTLRQIRQ

[3] = tested on: LRRKtide with +1Leu mutated to Ala
[4] = tested on: LRRKtide with +2Arg mutated to Ala
[5] = tested on: LRRKtide with +5Arg mutated to Ala
[6] = tested on: LRRKtide with -2Tyr mutated to Ala
[7] = tested on: LRRKtide with -2Tyr mutated to Arg
[8] = tested on: LRRKtide with -2Tyr mutated to Glu
[9] = tested on: LRRKtide with -4 (Asp) mutated to Ala
[10] = tested on: LRRKtide with -5Arg mutated to Ala
[11] = tested on: LRRKtide with the +2 residue mutated to Glu
[12] = tested on: LRRKtide with the +2 residue mutated to Pro
[13] = tested on: LRRKtide with the +5 residue mutated to Glu
[14] = tested on: LRRKtide with the +5 residue mutated to Pro
[15] = tested on: T2, Nictide (RLGWWRFYTLRRARQGNTKQR)
T2 sequence: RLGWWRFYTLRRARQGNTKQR

[16] = tested on: Nictide peptides with combined -5, -4 and -1 mutations
[17] = tested on: Nictide with +1Leu mutated to Pro
[18] = tested on: Nictide with +2 Arg mutated to Ala
[19] = tested on: Nictide with -1 Tyr mutated to Ala
[20] = tested on: Nictide with -4Trp mutated to Ala
[21] = tested on: Nictide with -5Trp mutated to Ala
[22] = tested on: Nictide with Thr introduced at the +2 position
[23] = tested on: Nictide with Thr introduced at the -2 position
[24] = tested on: Nictide with Thr residues at both the -2 and +2 positions
[25] = tested on: Nictide with the phosphorylated Thr mutated to Ser

GST-LRRK2 1326-2527 [G2019S]
phosphorylation of GST fusion proteins (32P autoradiography) [1]: phosphorylated to a significantly greater extent by LRRK2 than the other GST-fusion proteins
Km of peptide phosphorylation [2]: Km of 200 µM
Vmax of peptide phosphorylation [2]: Vmax of 14 U/mg
fold decrease of Vmax against wild type LRRKtide [3]: +1Leu (2-fold)
peptide phosphorylation [3]: had no effect on LRRK2 phosphorylation
fold decrease of Vmax against wild type LRRKtide [4]: +2 Arg (4 to 28-fold)
fold increase of Km against wild type LRRKtide [4]: +2Arg (4.5-fold)
fold increase of Km against wild type LRRKtide [5]: +5Arg (4-fold)
fold decrease of Vmax against wild type LRRKtide [6]: -2 Tyr (2 to 10-fold)
fold increase of Km against wild type LRRKtide [6]: -2Tyr (2.4-fold)
Km against wild type LRRKtide [7]: slightly decreased Km
fold decrease of Vmax against wild type LRRKtide [7]: -2 Tyr (2 to 10-fold)
fold decrease of Vmax against wild type LRRKtide [8]: -2 Tyr (2 to 10-fold)
fold increase of Km against wild type LRRKtide [8]: increased Km 4.4-fold
fold decrease of Km against wild type LRRKtide [9]: decreasing Km 2.3-fold
fold increase of Km against wild type LRRKtide [10]: -5Arg (2.5 fold)
Km against wild type LRRKtide [11]: increased Km similarly to the Ala mutation
fold decrease of Vmax against wild type LRRKtide [11]: +2 Arg (4 to 28-fold)
Km against wild type LRRKtide [12]: increased Km similarly to the Ala mutation
fold decrease of Vmax against wild type LRRKtide [12]: +2 Arg (4 to 28-fold)
Km against wild type LRRKtide [13]: increased Km similarly to the Ala mutation
fold decrease of Vmax against wild type LRRKtide [13]: +5 Arg (mutation to Glu 4-fold)
Km against wild type LRRKtide [14]: increased Km similarly to the Ala mutation
Km of peptide phosphorylation [15]: Calculated Km values are 6micromolar for Nictide; also recorded: Km of 10 µM
Vmax of peptide phosphorylation [15]: Vmax of 26 U/mg
fold decrease of Km against LRRKtide [15]: 20-fold lower than LRRKtide
fold increase of Vmax against LRRKtide [15]: 1.7-fold higher than LRRKtide
fold increase of Km against Nictide [16]: the Km values were substantially increased 5 to 20-fold compared to Nictide
Km against Nictide [17]: without affecting Km
fold decrease of Vmax against Nictide [17]: only decreased Vmax of LRRK2 phosphorylation under 2-fold
fold decrease of Vmax against Nictide [18]: decreased the Vmax value of phosphorylation 2 to 5-fold
fold increase of Km against Nictide [19]: increased Km values 2 to 3-fold
fold increase of Vmax against Nictide [19]: enhanced Vmax of LRRK2 phosphorylation ~2-fold
fold decrease of Vmax against Nictide [20]: decreased the Vmax value of phosphorylation 2 to 5-fold
fold increase of Km against Nictide [20]: increased Km values 2 to 3-fold
fold increase of Vmax against Nictide [20]: enhanced Vmax of LRRK2 phosphorylation ~2-fold
fold increase of Km against Nictide [21]: increasing the Km value 3-fold
fold increase of Vmax against Nictide [21]: enhanced Vmax of LRRK2 phosphorylation ~2-fold
Km and Vmax against Nictide [22]: moderately increased the Km and reduced the Vmax value
Km and Vmax against Nictide [23]: moderately increased the Km and reduced the Vmax value
fold increase of Km against Nictide [24]: increased Km value of over 10-fold
peptide phosphorylation [25]: almost abolished phosphorylation of the peptide by LRRK2

Source: patent US20100068742
